Reference: US5717058, “Peptide inhibitors of tax-dependent transcription” (Somatogen, Inc.)

Experiments:
[1] = target: CREB + Tax (HTLV-I Tax enhances CREB binding) (/ HTLV-I, UniProt P16220;P03409 P16220:1-327,P03409:1-353); test: EMSA; details: tags: Tax carries C-terminal His6 (TaxH6); label: 32P end-label; cloned into pUC19 Bgl II site, 70 bp Kpn I-Hind III fragment used as probe
[2] = target: CREB (UniProt P16220 P16220:1-327); test: EMSA; 3.4 nM CREB, 0.5 nM probe, 10 ng poly dIdC, 75 mM KCl, 6.25 mM MgCl2, room temp; reference without Tax; details: tags: heparin-agarose purified, prepared per Franklin et al. 1993; chain copies: 2; label: 32P end-label; cloned into pUC19 Bgl II site, 70 bp Kpn I-Hind III fragment used as probe
CREB, sequence (P16220 whole entry, the tested form may be a part, one chain of several): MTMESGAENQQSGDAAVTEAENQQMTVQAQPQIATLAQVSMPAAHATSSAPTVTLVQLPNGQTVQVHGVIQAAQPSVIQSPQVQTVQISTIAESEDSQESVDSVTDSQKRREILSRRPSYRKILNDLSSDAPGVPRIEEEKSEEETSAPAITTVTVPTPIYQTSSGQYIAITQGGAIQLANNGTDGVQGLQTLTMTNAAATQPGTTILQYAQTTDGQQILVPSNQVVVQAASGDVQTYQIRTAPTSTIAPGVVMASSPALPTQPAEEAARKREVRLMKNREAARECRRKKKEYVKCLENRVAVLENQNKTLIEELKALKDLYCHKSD

CREB + Tax (HTLV-I Tax enhances CREB binding), sequence (P16220 whole entry, chain 1 of 2, the tested form may be a part): as the sequence (P16220 whole entry, the tested form may be a part, one chain of several) above
CREB + Tax (HTLV-I Tax enhances CREB binding), sequence (P03409 whole entry, chain 2 of 2, the tested form may be a part): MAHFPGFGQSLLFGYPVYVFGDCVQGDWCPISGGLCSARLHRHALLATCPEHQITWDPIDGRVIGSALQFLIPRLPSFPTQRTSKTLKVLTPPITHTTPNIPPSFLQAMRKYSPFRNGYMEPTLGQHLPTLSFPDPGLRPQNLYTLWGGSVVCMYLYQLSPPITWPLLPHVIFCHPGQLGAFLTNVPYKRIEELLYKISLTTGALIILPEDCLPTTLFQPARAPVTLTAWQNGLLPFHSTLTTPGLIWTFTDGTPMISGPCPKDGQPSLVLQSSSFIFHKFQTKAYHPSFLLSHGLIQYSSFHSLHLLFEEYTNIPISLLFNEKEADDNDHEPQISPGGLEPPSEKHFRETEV

B1: HTLV-I third 21 bp repeat (site 3 probe) (dsDNA)
DNA 1: GATCTGGCGTTGACGACAACCCCA
DNA 2: TGGGGTTGTCGTCAACGCCAGATC
With B1 the binding signal [1] was 3.9 fold and the binding signal [2] was 1 fold.
